# Measured values reported in paper PMC3383732, “Impact of Large Aggregated Uricases and PEG Diol on Accelerated Blood Clearance of PEGylated Canine Uricase” (PLoS ONE, 2012).
# Several values for one entry are separate records, joined by “and”; a condition that tells them apart may be missing. Equal values may be shown once.
# Biological target: the molecule itself
# Assay: SEC; SE-HPLC on Superdex 200 10/300 GL, 0.1 M Na2CO3 pH 10.3, 0.4 ml/min, detection at 280 nm; purified rCU after xanthine affinity chromatography and Source 15Q fractions
protein,measurement,value
"recombinant canine uricase (enzyme, UniProt Q5FZI9 1-304, looked up, Active form is a homo-tetramer; octamers and larger aggregates of the same chain were also seen and separated on Source 15Q; No tag is mentioned; Unmodified (not PEGylated) protein in the SE-HPLC analysis; also called rCU; wDU) MAHYHNDYKKNDEVEFVRTGYGKDMVKVLHIQRDGKYHSIKEVATSVQLTLSSKKDYVYGDNSDIIPTDTIKNTVHVLAKFKGIKSIETFAMNICEHFLSSFNHVIRAQVYVEEVPWKRFEKNGVKHVHAFIHNPTGTHFCEVEQMRSGPPVIHSGIKDLKVLKTTQSGFEGFIKDQFTTLPEVKDRCFATKVYCKWRYHQGRDVDFEATWDTVRDIVLEKFAGPYDKGEYSPSVQKTLYDIQVHSLSRVPEMEDMEISLPNIHYFNIDMSKMGLINKEEVLLPLDNPYGRITGTAKRKLASKL",stoichiometry N,4 and 8
